For experiment [1], the target named is T1, cynomolgus monkey ABCC1 (UniProt Q864R9 1-1531). The experiment can be described thus: FACS titration on C6 cells; C6 cells.
Experiment [2] deals with T2, human ATP Binding Cassette Subfamily C Member 1 (ABCC1) (UniProt P33527 1-1531). In words: FACS titration on C6-hC1 cells.
The target in experiment [3] is T1, cynomolgus monkey ABCC1. In words: FACS titration on C6-cC1 cells.
The target of experiment [4] is T2, human ATP Binding Cassette Subfamily C …. In words: FACS titration on H69AR cells.
Experiment [5] shares this target. In words: FACS titration on C6 cells.

T1 sequence (Q864R9 whole entry): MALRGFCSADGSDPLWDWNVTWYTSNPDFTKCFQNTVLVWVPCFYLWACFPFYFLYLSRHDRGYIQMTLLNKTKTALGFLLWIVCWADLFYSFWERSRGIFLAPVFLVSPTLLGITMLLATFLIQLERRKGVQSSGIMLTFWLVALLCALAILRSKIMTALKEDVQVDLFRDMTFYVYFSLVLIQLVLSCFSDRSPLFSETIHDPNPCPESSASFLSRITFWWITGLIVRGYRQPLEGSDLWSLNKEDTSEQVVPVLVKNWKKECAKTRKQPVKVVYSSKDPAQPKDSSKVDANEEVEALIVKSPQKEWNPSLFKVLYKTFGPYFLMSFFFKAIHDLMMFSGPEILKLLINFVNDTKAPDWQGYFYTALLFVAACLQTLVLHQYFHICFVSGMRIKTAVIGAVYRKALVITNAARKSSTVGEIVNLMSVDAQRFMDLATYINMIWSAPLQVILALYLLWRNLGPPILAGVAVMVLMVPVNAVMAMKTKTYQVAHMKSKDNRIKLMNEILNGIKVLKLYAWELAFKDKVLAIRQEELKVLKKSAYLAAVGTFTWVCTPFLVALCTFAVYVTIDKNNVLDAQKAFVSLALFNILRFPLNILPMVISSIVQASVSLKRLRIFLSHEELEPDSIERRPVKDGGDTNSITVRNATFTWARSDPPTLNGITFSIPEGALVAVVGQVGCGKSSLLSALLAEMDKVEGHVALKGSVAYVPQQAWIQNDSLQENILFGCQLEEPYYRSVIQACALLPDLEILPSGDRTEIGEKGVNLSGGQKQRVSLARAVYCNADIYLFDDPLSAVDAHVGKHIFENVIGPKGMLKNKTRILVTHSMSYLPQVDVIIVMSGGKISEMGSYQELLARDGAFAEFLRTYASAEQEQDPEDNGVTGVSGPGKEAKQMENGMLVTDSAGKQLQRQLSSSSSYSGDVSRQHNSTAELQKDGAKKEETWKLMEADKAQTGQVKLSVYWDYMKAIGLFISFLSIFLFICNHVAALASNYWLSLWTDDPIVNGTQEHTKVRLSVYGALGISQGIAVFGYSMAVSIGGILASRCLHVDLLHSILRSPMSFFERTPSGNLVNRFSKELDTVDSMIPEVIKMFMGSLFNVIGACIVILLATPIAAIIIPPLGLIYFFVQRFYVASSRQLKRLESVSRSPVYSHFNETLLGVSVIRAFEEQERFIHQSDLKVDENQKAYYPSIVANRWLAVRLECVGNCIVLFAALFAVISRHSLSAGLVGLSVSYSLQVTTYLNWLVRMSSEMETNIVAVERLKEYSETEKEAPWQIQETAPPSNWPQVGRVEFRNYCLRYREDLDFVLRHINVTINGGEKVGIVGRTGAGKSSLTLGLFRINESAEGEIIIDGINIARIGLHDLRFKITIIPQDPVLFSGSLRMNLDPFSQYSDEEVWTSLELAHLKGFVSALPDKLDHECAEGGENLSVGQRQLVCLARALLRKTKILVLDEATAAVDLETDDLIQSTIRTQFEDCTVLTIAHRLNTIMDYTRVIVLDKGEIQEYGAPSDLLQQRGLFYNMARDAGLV

B1: C1.879A (antibody, V domains shown)
VH: EVQLTESGPGLVQPSQTLSLTCTVSGFSLTSNGVSWVRQPPGKGLEWIAAISSGGSTYYNSAFKSRLSISRHTSKSQVLLNMNSLQTEDTAMYFCARHRGYYWSNWGYFDYWGQGVMVTVSS
VL: DIQLTQSPSLLSASVGDRVTLSCKGSQNINNYLAWYQQKVGEAPKLLIYKTNSLQTGIPSRFSGSGSGTDYTLTISSLHSEDLATYYCYQYNNGYTFGAGTKLELKR
B1 returned a dissociation constant (Kd) with cynomolgus monkey ABCC1 [1] of 27.2 nM.

B2: C1.830B (antibody, V domains shown)
VH: EVQLKESGPGLVRPSQTLSLTCSVSGFSLTNYNVHWVRQPTGKGLEWMGIIWTGGYTDYNSDLKSRLSITRDTSKSQVFLKMNGLQTEDVATYYCARERHTMGITKSWYFDYWGQGASVTVSS
VL: DILMTQSPASLSASLGETISIECLASEGIFSYLGWYQQKPGKSPQLLIYGANSLQAGVPSRFSGSGSGTQYSLKISSMQPEDEGDYFCQQSYKFPVTFGSGTKLELK
As for B2, the equilibrium dissociation constant (Kd) in experiment [2] was 14.4 nM; with cynomolgus monkey ABCC1 [3], 8.6 nM.

B3: C1.786a (antibody, V domains shown)
VH: EVQLTESGLGLVQPSQTLSLTCSVSGFSLTSYNVHWVRQPTGKGLEWMGVIWTGGYTDSNSPLKSRLSITRDTSKSQVFLKMNSLQSEDIATYYCARERHTMGITKSWYFDYWGQGVMVTVSS
VL: DVQMTQSPASLSASLGETISIECLASEGIFSYLAWYQQKPGKSPQLLIYGANTLQAGVPSRFSGSGSGTQYSLKISSMQPEDEGDYFCQQSYKFPVTFGSGTKLELK
As to B3, in experiment [4], the Kd was found to be 8.3 nM.

B4: C1.309 (antibody, V domains shown)
VH: QVQLKESGPGLVAPSQSLSITCTVSGFSLTSYDITWIRQPPGKGLEWLGVIWTGGGTNYNSAFMSRLSISKDSSKSQVFLKMNSLRTDDTAIYYCVRDLRYGYDGFWYFDVWGAGTTVTVSS
VL: DVVMTQTPLSLPVSLGDQASISCRSSQSIVHSNGNTYLEWYLQKPGQSPKLLIYKVSNRFSGVPDRFSGSGTGTDFTLKISRVEAEDLGVYYCFQGSHVPRTFGGGTKLEIK
As for B4, the Kd in experiment [4] is 10 nM; in experiment [5], 133 nM.

B5: C1.505.hu11 (antibody, V domains shown)
VH: EVQLQESGPGLVKPSETLSLTCTVSGFSLTSNGVSWVRQPPGKGLEWIAAISSGGSTYYNSAFKSRLTISRDTSKNQVSLKLSSVTAADTAVYYCARHRGYYWSNWGYFDYWGQGTLVTVSS
VL: DIQLTQSPSSLSASVGDRVTITCKGSQNINNYLAWYQQKPGKAPKLLIYKTNSLQTGIPSRFSGSGSGTDYTLTISSLQPEDFATYYCCQYNDGYTFGQGTKLEIK
For the molecule B5, the Kd in experiment [5] is 158 nM.

B6: C1.777a (antibody, V domains shown)
VH: EVQLVESGPGLVQPSQTLSLTCTVSGFSLTNNGVSWVRQPPGKGLEWIAAISSGGSIYYNLAFKSRLSISRNTSKGHVLLKMNSLQTEDTAMYFCVRHRGYYGFNWGYFDYWGQGVMVTVSS
VL: NIQLTQSPSLLSASVGDRVTLSCKGSQNINNYLAWYQQKLGEAPKLLIYKTNSLQTGIPSRFSGSGSGTDYTLTISSLHSEDLATYYCYQYNDGYTFGAGTKLELK
On to B6, for which the Kd was found to be 4.2 nM in experiment [4] and 41.2 nM in experiment [5].

B7: C1.784a (antibody, V domains shown)
VH: EVKLEESGPGLVQPSQTLSLTCTVSGFSLTNNGVSWVRQPPGKGLEWIAAMSSGGNIYYNSAFKSRLSISRDTSKSQVLLKMSSLQTEDTAMYFCGRHRGYYWYNWGFFDYWGQGASVTVSS
VL: NIQLTQSPSLLSASVGDRVTLSCKGSQNINNYLAWYQQKLGEAPKLLIYKTNSLQTGIPSRFSGSGSGTDFTLTISSLHSEDLATYYCCQYNNGYTFGAGTKLELK
Regarding B7, the Kd was 7 nM in experiment [4] and 38.2 nM in experiment [5].

B8: C1.851 (antibody, V domains shown)
VH: EVQLKESGPGLVQPSQTLSLTCTVSGFSLTNNGVSWIRQPPGKGLEWIAAISSGGNIYYNSAFKSRLSISRNTSKRQVLLKMNSLQTEDTAMYFCARHRGYYGYNWGYFDYWGQGASVTVSS
VL: NIQLTQSPSLLSASVGDRVTLSCKGSQNINNYLAWYQQKLGEAPKLLIYKTNSLQTGIPSRFSGSGSGTDYTLTISSLHSEDLATYYCCQYNNGYTFGAGTKLELKR
As for B8, the figures for the Kd (in experiment [2]; in the experiment with cynomolgus monkey ABCC1 [3]) were 98 nM and 28 nM, respectively.

B9: C1.855 (antibody, V domains shown)
VH: EVQLKESGPGLVQPSQTLSLTCTVSGFSLTSNGVSWVRQPPGKGLEWIAAISNGGNIYYNSAFKSRLSISRHTSKSQVLLKMNSLQTEDTAMYFCARHRGYYGYNWGYFDYWGQGASVTVSS
VL: NIQLTQSPSLLSASVGDRVTLSCKGSQNINNYLGWYQQKLGEAPRLLIYKTNSLQTGIPSRFSGSGSGTDYTLTISSLHSEDLATYYCYQYNNGYTFGAGTKLELK
As to B9, the Kd in experiment [2] is greater than 1000 nM; in the experiment with cynomolgus monkey ABCC1 [3], 279 nM.

B10: C1.773a (antibody, V domains shown)
VH: EVQLKESGPGLVQPSQTLSLTCTVSGFSLTSNGVSWVRQPPGKGLEWIAAISSGGSIYYNSAFKSRLSISRHTSKSQVLLKMNSLQTEDTAMYFCARHRGYYGYNWGYFDYWGQGASVTVSS
VL: NIQLTQSPSLLSASVGDRVTLSCKGSQNINNYLAWYQQKLGEAPKLLIYKTNSLQTGIPSRFSGSGSGTDYTLTISSLHSEDLATYYCSQYNNGYTFGAGTKLEIK
As to B10, the Kd in experiment [4] stood at 3.2 nM; in experiment [5], 33 nM.

B11: C1.877 (antibody, V domains shown)
VH: EVQLTESGPGLVQPSQTLSLTCTVSGFSLTSNGVSWVRQPPGKGLEWIAAISSGGSTYYNSAFKSRLSISRHTSKSQVLLNMNSLQTEDTAMYFCARHRGYYWSNWGYFDYWGQGVMVTVSS
VL: DIVMTQSPSLLSASVGDRVTLSCKGSQNINNYLAWYQQKLGEAPKLLIYETNSLQTGIPSRFSGSGSGTDYTLTLSSLHSEDLATYYCYQYNDGYTFGAGTKLEIK
Take B11: the Kd in the experiment with cynomolgus monkey ABCC1 [1] is 66.8 nM.

B12: C1.847 (antibody, V domains shown)
VH: EVQLKESGPGLVQPSQTLSLTCTVSGFSLTNNGVSWVRQPPGKGLEWIAAISSGGNIYHNSALKSRLSISRNTAQSQVLLKMNSLQTEDTAMYFCARHRGYYGYNWGYFDYWGQGTLVTVSS
VL: NIQLTQSPSLLSASVGDRVTLSCKGSQNIYNYLAWYQQKLGEAPKLLIYKTNSLQTGIPSRFSGSGSGTDYTLTISSLHSEDLATYYCCQYNNGYTFGAGTKLELK
In the case of B12, the values for the Kd (in experiment [2]; with cynomolgus monkey ABCC1 [3]) were 21.7 nM and 23.3 nM, respectively.

B13: C1.841 (antibody, V domains shown)
VH: EVQLLESGPGLVQPSQTLSLTCTVSGFSLTNNGVSWVRQPPGKGLEWVAAMSSGGNIYYNSAFKSRLSISRHTSKSQVLLKMNSLQTEDTAMYFCARHRGYYGYNWGYFDYWGQGVMVTVSS
VL: NIQLTQSPSLLSASVGDSVSLRCKGSQNIYNYLAWYQQKLGEAPKLLIYKTNNLQTGIPSRFSGSGSGTDYTLTISSLNSEDLATYYCCQYNNGYTFGAGTKLELK
Take B13: the Kd in experiment [2] worked out at 103 nM; in the experiment with cynomolgus monkey ABCC1 [3], 42.3 nM.

B14: C1.778b (antibody, V domains shown)
VH: EVQRKESGPGLVQPSQTLSLTCTVSGFSLTNNGVSWVRQPPGKGLEWIAAISSGGSIYYNSAFKSRLSISRITSKSQVLLKMNSLQTEDTAMYFCARHRGYYGYNWGYFDYWGQGVMVTVSS
VL: NIQLTQSPSLLSASVGDRVTLSCKGSQNIDNYLAWYQQKLGEPPKLLIYKTNSLQTGIPSRFSGSGSGTDYTLTISSLHSEDLATYYCYQYNNGYTFGAGTKLELKR
Consider B14, for which the Kd with cynomolgus monkey ABCC1 [1] turned out to be 28.2 nM; in experiment [4] it was 8.7 nM; in experiment [5], 667 nM.

B15: C1.845 (antibody, V domains shown)
VH: EVQLVESGPGLVQPSQTLSLTCTVSGFSLTNNGVSWVRQPPGKGLEWIAAISSGGSIYYNLAFKSRLSISRNTSKGQVLLKMNSLQTEDTAMYFCARHRGYYGYNWGYFDYWGQGASVTVSS
VL: NIQLTQSPSLLSASVGDRVTLSCKGSQNINNYLAWYQQKLGEAPKLLIYKTNSLQTGIPSRFSGSGSGSDYTLTISSLHSEDLATYYCYQYNDGYTFGAGTKLELK
In the case of B15, the equilibrium dissociation constant (Kd) amounted to 21.8 nM in experiment [2] and 20.1 nM with cynomolgus monkey ABCC1 [3].

B16: C1.876 (antibody, V domains shown)
VH: QVQLKESGPGLVQPSQTLSLTCTVSGFSLTNNGVSWVRQPPGKGLEWIAAMSSGGSIYYNSAFKSRLSISRHTSKSQVLLQMNSLQTEDTAMYFCTRHRGYYGYNWGYFDYWGQGVMVTVSS
VL: DIQLTQSPSLLSASVGDSVSLRCKGSQNIYNYLAWYQQKLGEAPKLLIYKTNNLQTGIPSRFSGSGSGTDYTLTISSLNSEDLATYYCCQYNNGYTFGAGTKVELK
Regarding B16, in the experiment with cynomolgus monkey ABCC1 [1], the Kd was found to be 3.7 nM.

B17: C1.779B (antibody, V domains shown)
VH: EVKLLESGPGLVQPSQTLSLTCTVSGFSLTSNGVIWVRQPPGKGLEWIAAISSGGNIYYNSGLKSRLGISRDTSKSQVFLKMNSLQTEDTAIYFCTRARGTTTAYFMDAWGQGASVTVSS
VL: ETVMTQSPSSLAVSAGETVTMNCKSSQSLLYSGNQKNYLAWYQQKPGQSPKLLIYWASTRQSGVPDRFIGSGSGTDFTLTISSVQAEDLAIYYCQQYYDTLMKMFGAGTKLEIK
Turning to B17, the Kd in experiment [4] was 10.1 nM; in experiment [5] it was 83.3 nM.

B18: C1.844 (antibody, V domains shown)
VH: EVQLKESGPGLVQPSQTLSLTCTVSGFSLTSNGVIWVRQPPGKGLEWIAAISSGGNIYYNSGLKSRLGISRDTSKSQVFLKMNSLQTEDTAIYFCTRARGTTTAYVMDAWGQGASVTVSS
VL: DIVMTQSPSSLAVSAGETVNINCKSSQSLLYSVNQKNYLAWYQQKPGQSPKLLIYWASTRQSGVPDRFIGSGSGTDFTLTISSVQAEDLAIYYCQQYYDTLMKMFGAGTKLELK
Turning to B18, the Kd in experiment [2] came to 65.1 nM; with cynomolgus monkey ABCC1 [3] it was 34.1 nM.

B19: C1.781A (antibody, V domains shown)
VH: EVQLTESGPGLVQPSQTLSLTCTVSGFSLTSNGVSWVRLPPGKGLEWIAAISSGGNIYYNSALKSRLSISRDTSKSQVFLKMNSLQTEDTAIYFCTRERGWNYPGITNGYYFDYWGQGTSVTVSS
VL: DIVLTQSPSLLSASVGDRVILSCKAGQKINNYLAWYQQKLGEAPKLLIYNANSLQTGIPSRFSGSGSGTDYTLTISSLQPEDVATYFCQQYNSWYTFGAGTKLEIK
Turning to B19, the affinity in experiment [5], expressed as Kd, was 116 nM.

The record behind these values is patent US20230272117A1 (published 2023).
